experiment: soluble on expression in E. coli; label from the status in PepcDB or PDB records

Row | Sequence | soluble on expression in E. coli
1 | MFKDKKILVIGGTGSIGQALIERILTENPAVIRVYSRDEYKQFLLAEKFRENANIRYLIGDVRDEDRLDRAMNDIDIVFNLAALKHVPACEYNPFEAVRTNVIGSQNVIACAMANKVKKVIYTSSDKAVSPTNTMGATKLLAERLMSSSNYSRGNTGTVFASVRFGNVMGTRGSVIPLFKQQVLEKGYITVTEPEMTRFMMSLSQAVELTIKACSIARGGEVFVLKMPVIRLKDLAEVIIEDMCKKNNIDPEKIEIKKIGLRPGEKMYEELMSEDESTKAVELNDMYVIMPPFENSYYINARKAVIGNYSSQKEKTLTKSQIRELLVREKLI | not soluble
2 | MFKIKTIESLSDLTQLKKAYFDSSIVPLDGMWHFGFAPMAKHFGFYVNKNLVGFCCVNDDGYLLQYYLQPEFQLCSQELFTLISQQNSSVIGEVKGAFVSTAELNYQALCLDNSATFKVNSLMYQHNTKLADRNLEMIDMQIAGTEQLTAFVTFAAANIGAPEQWLTQYYGNLIERKELFGYWHKGKLLAAGECRLFDQYQTEYADLGMIVAQSNRGQGIAKKVLTFLTKHAATQGLTSICSTESNNVAAQKAIAHAGFTSAHRIVQFEFKHA | soluble
3 | MFKKLFGKGKEVQKDIAIYAPLTGEFVKIEDIPDPVFAQKMMGEGFGINPTEGEVVSPIAGRVDNVFPTKHAIGLKADNGLELLVHIGLDTVQLDGEGFEVLVSSGDEVNVGDPLVRFNLEYINNNAKSVISPIIITNTDQAASINIYDENAVIKGETKVIDVTMN | not soluble
4 | MFKRLSRFLLPLVWIFTATTALADDTQINTMDPYSMVKSVANKTFDRFHKDKALIDADADHLKVIVREELMPYIDYKYASYKVLGQYLKESTEDQRNRFVDAFQGYLVTTYAQAFTEYTNQKVEFSPGSDFSNEKIVDVNVQIIEAGRPPIKLLFKARRLKDDSWKAFDLVAEGVSLLSSKQSEISNLIRQQGIEPVIKMLEERTKDKVTKQPKAGKLEHHHHHH | soluble
5 | MFKVDRYFDLTAPIYPYMPVWPSNPPVELKPIVTVPKDGYLAEIIEASTHTGTHIDAPAHMIEGGTTVDDLDLASLIGTGYCLKVLPDGHTIRSTHLAEKWQGIYNNSILLIETGWYKKRGYTREFQYDFPGLSEDAADFLIQKHVKAVGIDTLGIEPYENTDFRVHKKLLRSGIPIIEDLYGLDSLEEGRPYLIIALPLRLKGTSGSMARVVAAETELEHHHHHH | not soluble
6 | MFNGDDDFPMGAMHSFGQMHQQMMSDMNMMTGGMLRNMGMGGPMFGGLMVPSPFGAITDGSGQQPSRRRQELEMNPFAPFGGLLGGLGGMGMMMPPPGQGANMYMSSSVMTIGPDGKPRVEQQTVRRHGDVTETKRRVDKNGESSMSIGHSIGDRSHFIDKKRDREGNVRKQQRFQNLDEASAEAFDREFSSRVRQGYGSGSRSSNLREIDNGLSSSRRSPFGGAGASSSSRRMESRGASRGAPIVTLPEEEETAHSRSSTSHRVGGPLIREISEEEAEQAASSIPKRRRGQQ | not soluble
7 | MFNLQKRINGNNEDGRYLETRIAVRDKLLAQELQQLETALRDQKQKLWHLEVPSTSCLHELELTVTPQEGIYRGGKFRFKITVPPEYNNVPPVVKCLTKVWHPNINEDGSICLSILRQNSLDQYGWRPTRNLTDVVHGLVSLFNDLMDFNDALNIQAAQMWSQNRESFNHRVREYISRYC | soluble
8 | MFNNILVVCVGNICRSPTAERLLQRYHPELKVESAGLGALVGKGADPTAISVAAEHQLSLEGHCARQISRRLCRNYDLILTMEKRHIERLCEMAPEMRGKVMLFGHWDNECEIPDPYRKSRETFAAVYTLLERSARQWAQALNAEQV | not soluble
9 | MFQIGEALMGQGSELAHVDLMIGDKGGPVGQAFANGLTQLSAGHTPLLSVIRPNLPPKPSTLIIPKVTVKNMDQAARIFGPAQSAVAKAVADSVEEGVIPKDQVEDLVIVASVFIHPEAQDYNKIYRYNYGATKLAIKRALEGFPDIDTVLEESNKSTHAIMGFKVTRLWDPPYLQIAFDNPNLEFVLSAISEIPKSDHVIIEAGTPLIKRYGTDVISKIRQVRPDAFIVADLKTLDTGNLEARMVADAAGDAIVVSALAPISTIDKLIEEAHKTGIYAVMDTLNQQDPISVLKQLKVMPDVIELHRGIDIEGTEHAWGNIGEIKKIAPKALVAVAGGVRLDKVPVALSQGADILVVGRAITNAKDVREMAEQFINSLNKPEIDQFRVMTDF | not soluble
10 | MFQNHKIMDLEVRTRLDDNRNLREVRIIPLGSGYNVGIVYSKEISDISDLNPKRILGIDMGVRNIVTIGNNMSEEGIAVKGGVLRSINQYFNKELSKLKSVSDRQNDGKGNTRRIKNLYAVRNGKIKDIMHKLSRAIIRYALSMNVDTIVIGHSQGWKHTPDMGKKNNQNFVQIPFNILIEQIRYKGQEAGINVIVLDESYTSVCSFIDNESIEKHETYMGKRIKRGIFRSHKGILIHADLNALYNTIKKAISEAFADGIEGIGLYPRSLSIREMITSKGLRLEHHHHHH | soluble
11 | MFRIGQGFDVHQLVEGRPLIIGGIEIPYEKGLLGHSDADVLLHTVADACLGAVGEGDIGKHFPDTDPEFKDADSFKLLQHVWGIVKQKGYVLGNIDCTIIAQKPKMLPYIEDMRKRIAEGLEADVSQVNVKATTTEKLGFTGRAEGIAAQATVLIQKG | not soluble
12 | MFRISQLLKTLHDDMAELKPVKASRKMKGPVVIWNLIRRCNLQCKHCYSTSLDIDFKDELSTEQVKTTIDDLKVAHVPVLILSGGEPLLRPDIYEITEYAKQKGFYLALSTNGTLINEDNIEAIKAAEYQYVGISIDGLEEFHDEFRRQKGSFKTSMHAIKLCKDAGIKVGMRLCLTRENFKDLPAMLNLMEENSVDKFYLSHLNYSGRGKRTAENDAMFKMTKDAMELLYERAWTHINQGIETDFVTGNNDADGPFLLQWASKQFAEEYPEAIANLKQRLINWGGNSSGINVANIDNTGTIHPDTYWWNHPIGNVTTEKFSDVWRDTQDPLMLGFRQTPRPVKGRCASCEHLAICGGNTRTRAFAQSGDAWAEDPGCYLDDDEIGFIPSPSKFADELTNTENPIQFVEV | not soluble
13 | MFRLLVPTYYSYSVPLRFPFCKIYRYSTSNKMVAIKDITARQILDSRGNPTVEVDLLTDGGCFRAAVPSGASTGIYEALELRDKDQTKFMGKGVMKAVENIHKIIKPALIGKDPCDQKGIDKLMVEELDGTKNEWGWCKSKLGANAILAVSMACCRAGAAAKGMPLYKYIATLAGNPTDKMVMPVPFFNVINGGSHAGNKVAMQEFMIAPVGASTIQEAIQIGAEVYQHLKVVIKKKYGLDATNVGDEGGFAPNISGATEALDLLMEAIKVSGHEGKVKIAADVAASEFFLQDDKVYDLDFKTPNNDKSQRKTGEELRNLYKDLCQKYPFVSIEDPFDQDDFHSYAQLTNEVGEKVQIVGDDLLVTNPTRIEKAVQEKACNGLLLKVNQIGTVSESIEACQLAQKNKWGVMVSHRSGETEDSFIADLVVGLRTGQIKTGAPCRSERLCKYNQLMRIEESLGSDCQYAGAGFRHPN | soluble
14 | MFRNVAELVALAEKDSIKIAEVMIRQEVEVSGRSREEVIAQMDHHLSVMERAVERGLEGVVSRSGLTGGDAVRMQRYIEGGRFLSGETILDAVSKAMATNEVNAAMGVICATPTAGAAGVVPGTLFAVKEKLRPTRMEMIEFLFTAGAFGYVVANNASISGAAGGCQAEVGSAAGMAAAALVELAGGTPGQAAEAMAIALKNMLGLVCDPVAGLVEVPCVKRNAMGAANAMIAADMALAGIKSRIPCDEVIEAMYRIGAAMPVALKETAQGGLAATPTGRAIAARIFGASAASK | not soluble
15 | MFSAKKLSPADKLKNISSMLEEIVEDTTVPRNIRAAADNAKNALHNEEQELIVRSATAIQYLDDISEDPNMPIHTRTQIWGIVSELETIKN | not soluble
16 | MFSPLRRLTTTGLQLQKLQKLQKLQQFQPARAVHLTVFQQKGHSKWQNIKAVKGKNDLIRSKATNFLLRKVRGAVSRGGFDMKLNRELADLESEFRAQGLPLDTLKNFLQKMKDKPEVEYSFDIIGPSGIFLIVTAETSNKKAFENDLRKYFNKLGGFRLAADGGVRSWFEEKGVVHVDTKKGGKILNIEEMEEIGLEFDAEEVLLIEEDSTKKFELICDAKSLQTLENGLGKGGFSILQSEIEFRPVHPIDCPEAEEPKVQKLYEMLQEDEQVRQIFDNITPDE | not soluble
17 | MFSWQEFTERDVSLFTENVIRSLINTKYNVICHIEDYTPPQFDSFLQLSACYNIGEKTEDEVINSDGIRWSKKKDSLGSEMKPRKNTISVDGRTFRRINCSSPPPATNLFKKYMAIEEATKLCWILFLGSSHDVIDYTSLKVARKKLSKEEALMIRKMLEGRTVLMVYQMLGGKYSKRQIKDQQRNVLTTVKLNRGPRPVTNPADLCDLSRMFSHAYHSSHRNSIRFIYFNKSMLGLFLKSCPTYTEITTYRNRMDGIENWRTADLNKHLADCKVYTCGGIDTRVASIIELDTTFGLSNGYISVTTGFIPVFRTRQHTKSSPSKLRHVVLGFMFHSSKHKSHFEDFSGRLNEILQELDPKKIKKIQL | not soluble
18 | MFTGIVQGTAPIHSIKEKANFRTQVVKLLPEMRKDLEIGASIANNGVCLTVTEINGDLVSFDLMQETLKITNLGTVKVGDYVNIERAMQMGTEIGGHLLSGHIYCTAKISDIIASENNRQIWFELPSADVMKYILTKGFVAVDGISLTIGEVRDTQFCVNLIPETLQRTLMGRRKVGDIVNIEIDPQTQAIVDTVENYLQSKNFLEHHHHHH | soluble
19 | MFTKSHLALVIGAVLAAPAVANVQTDEHLVVEGREFGYKADTNSTAMRMEMTQLETPGQVAVIDETVIDEQRASTLGEVLRNDASVSAGGTSRNRERFSLRGFELSSSDGFLRDGRQHWSHYRQPIEL | not soluble
20 | MFTQQRLRPNTQELLKETNHLCEAFAISESILARYQRNNRQLSESEKKAFASLLLRVPHDFLTETVASLGTSKTSSIGPTTDLGSLIDNVFGFGKPLKDVFQLLNQELGNCLNSPRCRVYYLDPTDNLLKDPVYATASTLDETTPLGKAVLTGIQREIAGTLYLPLSFEGKVIACVESAWGSPEKGDKRRIKETLQFVACAMHNAIESERLRWNKEKAEAMLEMATQLARDNLDEAVLANSIMNTAKVLTESDRCSIFLVKDDTLEAHFEDGNIVAIPIATGIAGYVAQTGQTVKISDAYSDDRFNREVDKATGYRTKTILCMPVTYEGSIVAVAQLINKLDMVTESGLRLPRTFGKRDEELFQTFSMFAGASLRNCRINEKLINEKRKSDAILDVVTLLSNTDIRDVDGIVRHVLHGAKRLLYADRSALFLVDKERNELYSRIADSVAGKEIRFPCGQGIAGIVASTGIGENILDAYQDPRFNREVDKQLGYRTQTLLCEPIVLNGEILAVVQLVNKLNEAGEVTVFTESDRETFRVFSLFAGISINNSHLLEFAVKAGREMMELNENRALAGGRTGSLRNIKRPLAITEAERQAVRDINLAHLDITSIDFDLFYLRENMELPLDAAAAVAYRLIVGTGLPQKFRCRDDTLLNFILQCRKKYRNVPYHNFYHVVDVCQTVYTFLYKGAVCEKLTELDCFVLLVTALVHDLDHMGLNNSFYLKTDSPLGILSSASGNASVLEVHHCNLAVEILSDPDSDVFEGLDAADRTLAYRSMIDCVLATDMAKHGKSLESFLSVLGNPETSEQRIAELTMQIVLKAGDVSNVTKPFDISRLWAMAVTEEFYRQGDMEKEKGVEVLPMFDRSKNTELAKGQIGFIDFVAGPFFKKIVSASLTGMQWTVERVESNRLEWQRSLDAK | not soluble
21 | MFVFGAYWFDCGERAVLPANSRGALRPQCTRLRFWRGRYWHRGAVSALRRVRPLSASTPSPRVLDGSQSLADTPDNVQQLLQHMSQELDSVVQSMVHLEEYALEQVEKLKGAMEADLRKLALYEEEQAFAQKLTEQLQKKEGAVFEAMRHFLFHVVGLQEQTVAITNELQVLHEFVSENHERVELVLESLRERGLFGSRQDVFEGEVKKKLDRFDPEI | not soluble

From the DeepSol protein solubility set
